In publication PMC9019020, “Low complexity RGG-motif sequence is required for Processing body (P-body) disassembly” (Nature Communications, 2022):

Biological target: T1, His-Edc3-mCherry (S. cerevisiae, UniProt P39998 1-551)
T1 construct: Edc3, P-body protein of S. cerevisiae with Lsm, FDF and YjeF-N domains; full length; also called full-length Edc3; purified Edc3; source: E. coli BL21, purified (Ni-NTA agarose, batch; RNase A added during purification); not shown: His, N-terminal, kept; mCherry, C-terminal, kept
T1 sequence (looked up): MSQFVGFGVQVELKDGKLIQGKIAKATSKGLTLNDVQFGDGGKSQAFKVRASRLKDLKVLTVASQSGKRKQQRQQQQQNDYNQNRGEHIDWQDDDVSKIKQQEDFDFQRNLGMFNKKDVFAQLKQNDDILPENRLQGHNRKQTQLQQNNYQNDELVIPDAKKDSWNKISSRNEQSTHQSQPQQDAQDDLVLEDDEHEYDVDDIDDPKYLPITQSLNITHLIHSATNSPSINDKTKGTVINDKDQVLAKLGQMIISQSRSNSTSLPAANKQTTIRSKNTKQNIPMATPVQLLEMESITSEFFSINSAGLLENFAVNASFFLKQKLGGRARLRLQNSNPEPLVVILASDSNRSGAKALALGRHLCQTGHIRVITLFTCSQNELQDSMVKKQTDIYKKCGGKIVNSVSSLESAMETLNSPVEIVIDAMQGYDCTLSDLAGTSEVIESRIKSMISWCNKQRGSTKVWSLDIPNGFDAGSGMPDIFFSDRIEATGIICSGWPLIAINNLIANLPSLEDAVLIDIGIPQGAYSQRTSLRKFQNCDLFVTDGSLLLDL
Assay: pull-down; RFP magnetic agarose beads (Chromotek) capture Edc3-mCherry; 100 pmol of each purified protein; 4 °C, 2 h; 50 mM HEPES pH 7, 100 mM NaCl, 1 mM DTT, 2 mM MnCl2, 2 mM MgCl2, 1% Triton-X100, 10% glycerol, 0.25 mg/mL RNase A; western blot
Details: both partners purified

binding result: binds
B1: His-Sbp1-FLAG (natural protein, S. cerevisiae, UniProt P10080 1-294, looked up)
chain: MSAEIEEATNAVNNLSINDSEQQPRAPTHKTVIDPEDTIFIGNVAHECTEDDLKQLFVEEFGDEVSVEIPIKEHTDGHIPASKHALVKFPTKIDFDNIKENYDTKVVKDREIHIKRARTPGQMQRGGFRGRGGFRGRGGFRGGFRGGYRGGFRGRGNFRGRGGARGGFNGQKREKIPLDQMERSKDTLYINNVPFKATKEEVAEFFGTDADSISLPMRKMRDQHTGRIFTSDSANRGMAFVTFSGENVDIEAKAEEFKGKVFGDRELTVDVAVIRPENDEEEIEQETGSEEKQE
notes: Sbp1, RGG-motif containing translation repressor of S. cerevisiae; wild type; also called wild-type Sbp1; purified Sbp1; source: E. coli BL21, purified (Ni-NTA agarose, batch; RNase A added during purification); not shown: His, N-terminal, kept; FLAG, C-terminal, kept
